Results reported in patent US7329737 (DYAX, dated 2008).

Key:
[1] = biological target: T1, hK1 (human tissue kallikrein 1), recombinant (human, UniProt P06870 25-262); assay: SPR
T1 construct: Expressed in P. pastoris from KLK1 cDNA and purified; enzymatically active; also called KLK1; Recombinant (Pichia) Kallikrein

[2] = biological target: T1, hK1 (human tissue kallikrein 1), …; assay: cell-based or functional assay

Kd [1] [nM]	koff [1] [s⁻¹]	kon [1] [M⁻¹ s⁻¹]	IC50 (nM), inhibition of hK1 hydrolysis of Pro-Phe-Arg-AMC [2] [nM]	IC50 (nM), inhibition of hK1 enzyme activity [2] [nM]	Binder
2.26	0.000397	176000			M0136-D07 (Fab, V domains shown) VH: EVQLLESGGGLVQPGGSLRLSCAASGFTFSPYKMGWVRQAPGKGLEWVSSIYPSGGVTTYADSVKGRFTISRDNSKNTLYLQMNSLRAEDTAVYYCTKNINLRYDILTGYFDIWGQGTTVTVSS VL: DIQMTQSPSSVSASVGDRVTITCRASQDIASWLAWYQQKPEKVPKLLIYAASSLQSGVPSRFSGSGSGTDFTLTINSLQPEDFATYYCQQANSFPFTFGPGTKVDFKR
2.41	0.00096	399000			M0134-B03 (Fab, V domains shown) VH: EVQLLESGGGLVQPGGSLRLSCAASGFTFSHYSMFWVRQAPGKGLEWVSSIYPSGGQTDYADSVKGRFTISRDNSKNTLYLQMNSLRAEDTAVYYCARRGLLWSFDSWGQGTLVTVSS VL: AQSALTQPPSASGSPGQSVTISCTGTSSDVGAYNYVSWYQQHPGKAPKLIIYEVNKRPSGVPDRFSASKSGNTASLTVSGLQAEDEADYYCNSYAGSNSLIFGGGTKLTVLG
			1.1		M0097-F03 (Fab, V domains shown) VH: EVQLLESGGGLVQPGGSLRLSCAASGFTFSNYLMYWVRQAPGKGLEWVSSIRPSGGNTLYADSVKGRFTISRDNSKNTLYLQMNSLRAEDTAVYYCRRGILTGYYWGYYYYMDVWGKGTTVTVSS VL: DIQMTQSPATLSVSPGGRATLSCRASQSVRKNVAWYQQKPGQPPRLLIYGASTRATGVPARFSGSGSGTEFTLTISRMQPEDFVVYHCQQYSSWPAFGQGTMVEINR
9.66	0.00106	110000		22	M0136-E10 (Fab, V domains shown) VH: EVQLLESGGGLVQPGGSLRLSCAASGFTFSPYNMAWVRQAPGKGLEWVSSIWPSGGRTRYADSVKGRFTISRDNSKNTLYLQMNSLRAEDTAVYYCAKGVRSSGLLERGRVYDAFDIWGQGTMVTVSS VL: DIQMTQSPGTLSLSPGERATLSCRASQSVTTFLAWYQRKPGQAPRLLIYGASSRAADIPDRFSGSGSGTDFTLTISRLEPEDLAVYYCQQYRFSPPTFGPGTTVDIRR
			4		M0098-G05 (Fab, V domains shown) VH: EVQLLESGGGLVQPGGSLRLSCAASGFTFSKYKMGWVRQAPGKGLEWVSYIRPSGGMTFYADSVKGRFTISRDNSKNTLYLQMNSLRAEDTAVYYCTREHYQASYSSSAWFRMVPAGAFDIWGQGTMVTVSS VL: DIQMTQSPSSLSASVGDRVTITCRASQTISRYLNWYQQKPGTAPKLLIYAASSLQSGVPSRFSGDGSGTDFTLTISSLQPEDFGIYFCQQSYSAPRTFGQGTKVEIKR
			1		M0139-C02 (Fab, V domains shown) VH: EVQLLESGGGLVQPGGSLRLSCAASGFTFSYYKMHWVRQAPGKGLEWVSVIYPSGGKTTYADSVKGRFTISRDNSKNTLYLQMNSLRAEDTAVYYCTREHYQASYSSSAWFRMVPAGAFDIWGQGTMVTVSS VL: DIQMTQSPSSLSASVGDRVTITCRASQGIRRAWYQQKPGKPPKLLINDASSLESGVPSRFSGSGSGTDFTLTISSLQPEDFATYYCQQSYSTPPWTFGQGTKVEIKR
			5.1		M0106-G12 (Fab, V domains shown) VH: EVQLLESGGGLVQPGGSLRLSCAASGFTFSWYRMHWVRQAPGKGLEWVSSIWPSGGKTHYADSVKGRFTISRDNSKNTLYLQMNSLRAEDTAVYYCARALQYGSGSYFYAPKSYYYYGMDVWGQGTTVTVSS VL: DIQMTQSPSFVSASIGDRVTITCRASQSIGTLLNWYQHKPGTVPSLLIYGNLRGGVPARFSGSGSGTDFTLTISSLQPEDFATYYCQHDTFGGGTKVDIKR
6.42	0.00146	227000	2.4		M0133-E02 (Fab, V domains shown) VH: EVQLLESGGGLVQPGGSLRLSCAASGFTFSWYTMTWVRQAPGKGLEWVSSIYPSGGHTSYADSVKGRFTISRDNSKNTLYLQMNSLRAEDTAVYYCAKDTRVGPWLVRAPLDYWGQGTLVTVSS VL: not shown
6.19	0.00161	260000		28	M0138-G11 (Fab, V domains shown) VH: EVQLLESGGGLVQPGGSLRLSCAASGFTFSWYTMTWVRQAPGKGLEWVSSIYPSGGHTSYADSVKGRFTISRDNSKNTFYLQMNSLRAEDTAVYYCAKDTRVGPWLVRAPLDYWGQGTLVTVSS VL: not shown
			0.89		M0102-E09 (Fab, V domains shown) VH: EVQLLESGGGLVQPGGSLRLSCAASGFTFSLYLMEWVRQAPGKGLEWVSSIGSSGGATWYADSVKGRFTISRDNSKNTLYLQMNSLRAEDTAMYYCATDTSRVAGTRLRNYYYYYGMDVWGQGTTVTVSS VL: DIQMTQSPDSLSLSPGERATLSCRASQSISSSYLAWYQQTPGQAPRLLIYHASSRATGVPARFSGSGSGTDFTLTISSLEPEDFAVYYCQQRNNWPPSFTFGGGTKVETKR
2.26	0.00138	614000			M0138-E02 (Fab, V domains shown) VH: EVQLLESGGGLVQPGGSLRLSCAASGFTFSHYMMHWVRQAPGKGLEWVSGIGPSGGKTPYADSVKGRFTISRDNSKNTLYLQMNSLRAEDTAVYYCARVGVWYGMDVWGQGTTVTVSS VL: DIQMTQSPSSVSASVGDRVTITCRASQGISSWLVWYQQKPGKAPKLLIYAASSLQSGVPSRFSGSGSGTDFTLTISSLQPEDFATYYCQQAKTFPLTFGGGTKVEIKR
2.36	0.000734	311000			M0131-F09 (Fab, V domains shown) VH: EVQLLESGGGLVQPGGSLRLSCAASGFTFSHYVMQWVRQAPGKGLEWVSGIGPSGGSTTYADSVKGRFTISRDNSKNTLYLQMNSLRAEDTAVYYCARVGVWYGMDVWGQGTTVTVSS VL: DIQMTQSPATLSLSPGERATLSCRASQSVSSYLAWYQQKPGQAPRLLIYDASNRATGIPARFSGSGSGTDFTLTISSLEPEDFAVYYCQQRSNWLWTFGQGTKVEIKR
				160	M0111-D11 (Fab, V domains shown) VH: EVQLLESGGGLVQPGGSLRLSCAASGFTFSWYAMMWVRQAPGKGLEWVSSIWPSGGHTKYADSVKGRFTISRDNSKNTLYLQMNSLRAEDTAVYYCATDQGYFWGQGTLVTVSS VL: DIQMTQSPATLSLSPGDRATLSCRASQRVSSTFLAWYQQRPGQAPRLVIFGTSSRATGIPDRFSGSGSGTDFTLTISRLEPEDFAVYYCHQYGSSPRTFGQGTKVEIKR
8.78	0.00153	175000	10.9		M0138-C09 (Fab, V domains shown) VH: EVQLLESGGGLVQPGGSLRLSCAASGFTFSPYRMSWVRQAPGKGLEWVSVISPSGGITEYADSVKGRFTISRDNSKNTLYLQMNSLRAEDTAVYYCAKHERGSGYYVTPPAGAFDIWGQGTMVTVSS VL: AQSELTQPASVAGSPGQSITISCTGTSSDVGLYNFVSWYQQHPGKAPKLMIYDVSRRPSGVSNRFSASKSGTRASLTVSGLQAEDEADYYCSSYAGSNNYVFGTGTKVTVLG
				44	M0110-F08 (Fab, V domains shown) VH: EVQLLESGGGLVQPGGSLRLSCAASGFTFSNYVMYWVRQAPGKGLEWVSGIGPSGGFTTYADSVKGRFTISRDNSKNTLYLQMNSLRAEDTAVYYCTRDRYFGSGYYMAAYYYYGMDVWGQGTTVTVSS VL: DIQMTQSPGTLSLSPGERATLSCRASQSVVSNFLAWYQQKPGQAPRLLIYGASSRATGIPDRFSGSGSGTDFILTISRLEPEDFAVYYCQQYGSSPYSFGQGTKLEIKR
